Laboratory results published in patent US20110280809.

Biological target: Bovine pancreatic trypsin inhibitor, reduced form, P00974

B1: GST-Pdia4 (protein)
chain: VAGAEGPDEDSSNRENAIEDEEEEEEEDDDEEEDDLEVKEENGVLVLNDANFDNFVADKDTVLLEFYAPWCGHCKQFAPEYEKIANILKDKDPPIPVAKIDATSASVLASRFDVSGYPTIKILKKGQAVDYEGSRTQEEIVAKVREVSQPDWTPPPEVTLVLTKENFDEVVNDADIILVEFYAPWCGHCKKLAPEYEKAAKELSKRSPPIPLAKVDATAETDLAKRFDVSGYPTLKIFRKGRPYDYNGPREKYGIVDYMIEQSGPPSKEILTLKQVQEFLKDGDDVIIIGVFKGESDPAYQQYQDAANNLREDYKFHHTFSTEIAKFLKVSQGQLVVMQPEKFQSKYEPRSHMMDVQGSTQDSAIKDFVLKYALPLVGHRKVSNDAKRYTRRPLVVVYYSVDFSFDYRAATQFWRSKVLEVAKDFPEYTFAIADEEDYAGEVKDLGLSESGEDVNAAILDESGKKFAMEPEEFDSDTLREFVTAFKKGKLKPVIKSQPVPKNNKGPVKVVVGKTFDSIVMDPKKDVLIEFYAPWCGHCKQLEPVYNSLAKKYKGQKGLVIAKMDATANDVPSDRYKVEGFPTIYFAPSGDKKNPVKFEGGDRDLEHLSKFIEEHATKLSRTKEEL
  disulfide isomerase activity, fraction remaining (%) of the reduced BPTI: GST-Pdia4 showed disulfide isomerase activity as compared to GST protein in redox buffer as evidenced by a decrease in disulfide formation of bovine pancreatic trypsin inhibitor
